Data: patent US20150368311A1 (Sanofi, published 2015)
Non-standard residues stand in square brackets, D forms with d. No end group written: not given here. Ala(4-thiazolyl) = N[C@@H](Cc1cscn1)C(=O)O; 1Nal = N[C@@H](Cc1cccc2ccccc12)C(=O)O; Chg = N[C@H](C(=O)O)C1CCCCC1; Phg = N[C@H](C(=O)O)c1ccccc1; Tle = CC(C)(C)[C@H](N)C(=O)O; Nle = CCCC[C@H](N)C(=O)O

B1: SEQ ID NO: 23 (peptide)
peptide: [Ala(4-thiazolyl)]SQGTFTSD[Chg]SKQLESRRAQDFIEWLLATGPESGAPPPS-OH
modifications: N-terminus assumed
SMILES: CC[C@H](C)[C@H](NC(=O)[C@H](Cc1ccccc1)NC(=O)[C@H](CC(=O)O)NC(=O)[C@H](CCC(N)=O)NC(=O)[C@H](C)NC(=O)[C@H](CCCNC(=N)N)NC(=O)[C@H](CCCNC(=N)N)NC(=O)[C@H](CO)NC(=O)[C@H](CCC(=O)O)NC(=O)[C@H](CC(C)C)NC(=O)[C@H](CCC(N)=O)NC(=O)[C@H](CCCCN)NC(=O)[C@H](CO)NC(=O)[C@@H](NC(=O)[C@H](CC(=O)O)NC(=O)[C@H](CO)NC(=O)[C@@H](NC(=O)[C@H](Cc1ccccc1)NC(=O)[C@@H](NC(=O)CNC(=O)[C@H](CCC(N)=O)NC(=O)[C@H](CO)NC(=O)[C@@H](N)Cc1cscn1)[C@@H](C)O)[C@@H](C)O)C1CCCCC1)C(=O)N[C@@H](CCC(=O)O)C(=O)N[C@@H](Cc1c[nH]c2ccccc12)C(=O)N[C@@H](CC(C)C)C(=O)N[C@@H](CC(C)C)C(=O)N[C@@H](C)C(=O)N[C@H](C(=O)NCC(=O)N1CCC[C@H]1C(=O)N[C@@H](CCC(=O)O)C(=O)N[C@@H](CO)C(=O)NCC(=O)N[C@@H](C)C(=O)N1CCC[C@H]1C(=O)N1CCC[C@H]1C(=O)N1CCC[C@H]1C(=O)N[C@@H](CO)C(=O)O)[C@@H](C)O
B2: SEQ ID NO: 25 (peptide)
peptide: [Ala(4-thiazolyl)]SQGTFTSD[Tle]SKQ[Nle]ESRRAQEFIEWLLATGPESGAPPPS-OH
modifications: N-terminus assumed
SMILES: CCCC[C@H](NC(=O)[C@H](CCC(N)=O)NC(=O)[C@H](CCCCN)NC(=O)[C@H](CO)NC(=O)[C@@H](NC(=O)[C@H](CC(=O)O)NC(=O)[C@H](CO)NC(=O)[C@@H](NC(=O)[C@H](Cc1ccccc1)NC(=O)[C@@H](NC(=O)CNC(=O)[C@H](CCC(N)=O)NC(=O)[C@H](CO)NC(=O)[C@@H](N)Cc1cscn1)[C@@H](C)O)[C@@H](C)O)C(C)(C)C)C(=O)N[C@@H](CCC(=O)O)C(=O)N[C@@H](CO)C(=O)N[C@@H](CCCNC(=N)N)C(=O)N[C@@H](CCCNC(=N)N)C(=O)N[C@@H](C)C(=O)N[C@@H](CCC(N)=O)C(=O)N[C@@H](CCC(=O)O)C(=O)N[C@@H](Cc1ccccc1)C(=O)N[C@H](C(=O)N[C@@H](CCC(=O)O)C(=O)N[C@@H](Cc1c[nH]c2ccccc12)C(=O)N[C@@H](CC(C)C)C(=O)N[C@@H](CC(C)C)C(=O)N[C@@H](C)C(=O)N[C@H](C(=O)NCC(=O)N1CCC[C@H]1C(=O)N[C@@H](CCC(=O)O)C(=O)N[C@@H](CO)C(=O)NCC(=O)N[C@@H](C)C(=O)N1CCC[C@H]1C(=O)N1CCC[C@H]1C(=O)N1CCC[C@H]1C(=O)N[C@@H](CO)C(=O)O)[C@@H](C)O)[C@@H](C)CC
B3: SEQ ID NO: 26 (peptide)
peptide: HSQGTFTSDLSKQ[Nle]ESRRAQDFIEWLLATGPESGAPPPS-OH
modifications: N-terminus assumed
SMILES: CCCC[C@H](NC(=O)[C@H](CCC(N)=O)NC(=O)[C@H](CCCCN)NC(=O)[C@H](CO)NC(=O)[C@H](CC(C)C)NC(=O)[C@H](CC(=O)O)NC(=O)[C@H](CO)NC(=O)[C@@H](NC(=O)[C@H](Cc1ccccc1)NC(=O)[C@@H](NC(=O)CNC(=O)[C@H](CCC(N)=O)NC(=O)[C@H](CO)NC(=O)[C@@H](N)Cc1c[nH]cn1)[C@@H](C)O)[C@@H](C)O)C(=O)N[C@@H](CCC(=O)O)C(=O)N[C@@H](CO)C(=O)N[C@@H](CCCNC(=N)N)C(=O)N[C@@H](CCCNC(=N)N)C(=O)N[C@@H](C)C(=O)N[C@@H](CCC(N)=O)C(=O)N[C@@H](CC(=O)O)C(=O)N[C@@H](Cc1ccccc1)C(=O)N[C@H](C(=O)N[C@@H](CCC(=O)O)C(=O)N[C@@H](Cc1c[nH]c2ccccc12)C(=O)N[C@@H](CC(C)C)C(=O)N[C@@H](CC(C)C)C(=O)N[C@@H](C)C(=O)N[C@H](C(=O)NCC(=O)N1CCC[C@H]1C(=O)N[C@@H](CCC(=O)O)C(=O)N[C@@H](CO)C(=O)NCC(=O)N[C@@H](C)C(=O)N1CCC[C@H]1C(=O)N1CCC[C@H]1C(=O)N1CCC[C@H]1C(=O)N[C@@H](CO)C(=O)O)[C@@H](C)O)[C@@H](C)CC
B4: SEQ ID NO: 33 (peptide)
peptide: HSQGTFTSD[1Nal]SKQLESRRAQEFIEWLLATGPESGAPPPS-OH
modifications: N-terminus assumed
SMILES: CC[C@H](C)[C@H](NC(=O)[C@H](Cc1ccccc1)NC(=O)[C@H](CCC(=O)O)NC(=O)[C@H](CCC(N)=O)NC(=O)[C@H](C)NC(=O)[C@H](CCCNC(=N)N)NC(=O)[C@H](CCCNC(=N)N)NC(=O)[C@H](CO)NC(=O)[C@H](CCC(=O)O)NC(=O)[C@H](CC(C)C)NC(=O)[C@H](CCC(N)=O)NC(=O)[C@H](CCCCN)NC(=O)[C@H](CO)NC(=O)[C@H](Cc1cccc2ccccc12)NC(=O)[C@H](CC(=O)O)NC(=O)[C@H](CO)NC(=O)[C@@H](NC(=O)[C@H](Cc1ccccc1)NC(=O)[C@@H](NC(=O)CNC(=O)[C@H](CCC(N)=O)NC(=O)[C@H](CO)NC(=O)[C@@H](N)Cc1c[nH]cn1)[C@@H](C)O)[C@@H](C)O)C(=O)N[C@@H](CCC(=O)O)C(=O)N[C@@H](Cc1c[nH]c2ccccc12)C(=O)N[C@@H](CC(C)C)C(=O)N[C@@H](CC(C)C)C(=O)N[C@@H](C)C(=O)N[C@H](C(=O)NCC(=O)N1CCC[C@H]1C(=O)N[C@@H](CCC(=O)O)C(=O)N[C@@H](CO)C(=O)NCC(=O)N[C@@H](C)C(=O)N1CCC[C@H]1C(=O)N1CCC[C@H]1C(=O)N1CCC[C@H]1C(=O)N[C@@H](CO)C(=O)O)[C@@H](C)O
B5: SEQ ID NO: 24 (peptide)
peptide: [Ala(4-thiazolyl)]SQGTFTSD[Chg]SKQ[Nle]ESRRAQEFIEWLLATGPESGAPPPS-OH
modifications: N-terminus assumed
SMILES: CCCC[C@H](NC(=O)[C@H](CCC(N)=O)NC(=O)[C@H](CCCCN)NC(=O)[C@H](CO)NC(=O)[C@@H](NC(=O)[C@H](CC(=O)O)NC(=O)[C@H](CO)NC(=O)[C@@H](NC(=O)[C@H](Cc1ccccc1)NC(=O)[C@@H](NC(=O)CNC(=O)[C@H](CCC(N)=O)NC(=O)[C@H](CO)NC(=O)[C@@H](N)Cc1cscn1)[C@@H](C)O)[C@@H](C)O)C1CCCCC1)C(=O)N[C@@H](CCC(=O)O)C(=O)N[C@@H](CO)C(=O)N[C@@H](CCCNC(=N)N)C(=O)N[C@@H](CCCNC(=N)N)C(=O)N[C@@H](C)C(=O)N[C@@H](CCC(N)=O)C(=O)N[C@@H](CCC(=O)O)C(=O)N[C@@H](Cc1ccccc1)C(=O)N[C@H](C(=O)N[C@@H](CCC(=O)O)C(=O)N[C@@H](Cc1c[nH]c2ccccc12)C(=O)N[C@@H](CC(C)C)C(=O)N[C@@H](CC(C)C)C(=O)N[C@@H](C)C(=O)N[C@H](C(=O)NCC(=O)N1CCC[C@H]1C(=O)N[C@@H](CCC(=O)O)C(=O)N[C@@H](CO)C(=O)NCC(=O)N[C@@H](C)C(=O)N1CCC[C@H]1C(=O)N1CCC[C@H]1C(=O)N1CCC[C@H]1C(=O)N[C@@H](CO)C(=O)O)[C@@H](C)O)[C@@H](C)CC
B6: SEQ ID NO: 32 (peptide)
peptide: HSQGTFTSD[Phg]SKQLESRRAQEFIEWLLATGPESGAPPPS-OH
modifications: N-terminus assumed
SMILES: CC[C@H](C)[C@H](NC(=O)[C@H](Cc1ccccc1)NC(=O)[C@H](CCC(=O)O)NC(=O)[C@H](CCC(N)=O)NC(=O)[C@H](C)NC(=O)[C@H](CCCNC(=N)N)NC(=O)[C@H](CCCNC(=N)N)NC(=O)[C@H](CO)NC(=O)[C@H](CCC(=O)O)NC(=O)[C@H](CC(C)C)NC(=O)[C@H](CCC(N)=O)NC(=O)[C@H](CCCCN)NC(=O)[C@H](CO)NC(=O)[C@@H](NC(=O)[C@H](CC(=O)O)NC(=O)[C@H](CO)NC(=O)[C@@H](NC(=O)[C@H](Cc1ccccc1)NC(=O)[C@@H](NC(=O)CNC(=O)[C@H](CCC(N)=O)NC(=O)[C@H](CO)NC(=O)[C@@H](N)Cc1c[nH]cn1)[C@@H](C)O)[C@@H](C)O)c1ccccc1)C(=O)N[C@@H](CCC(=O)O)C(=O)N[C@@H](Cc1c[nH]c2ccccc12)C(=O)N[C@@H](CC(C)C)C(=O)N[C@@H](CC(C)C)C(=O)N[C@@H](C)C(=O)N[C@H](C(=O)NCC(=O)N1CCC[C@H]1C(=O)N[C@@H](CCC(=O)O)C(=O)N[C@@H](CO)C(=O)NCC(=O)N[C@@H](C)C(=O)N1CCC[C@H]1C(=O)N1CCC[C@H]1C(=O)N1CCC[C@H]1C(=O)N[C@@H](CO)C(=O)O)[C@@H](C)O

Experiments:
Assay in all cases: cell-based or functional assay
human glucagon receptor [1] = molecular target: T1, human glucagon receptor (human, UniProt P47871 26-477)
T1 sequence (P47871 26-477): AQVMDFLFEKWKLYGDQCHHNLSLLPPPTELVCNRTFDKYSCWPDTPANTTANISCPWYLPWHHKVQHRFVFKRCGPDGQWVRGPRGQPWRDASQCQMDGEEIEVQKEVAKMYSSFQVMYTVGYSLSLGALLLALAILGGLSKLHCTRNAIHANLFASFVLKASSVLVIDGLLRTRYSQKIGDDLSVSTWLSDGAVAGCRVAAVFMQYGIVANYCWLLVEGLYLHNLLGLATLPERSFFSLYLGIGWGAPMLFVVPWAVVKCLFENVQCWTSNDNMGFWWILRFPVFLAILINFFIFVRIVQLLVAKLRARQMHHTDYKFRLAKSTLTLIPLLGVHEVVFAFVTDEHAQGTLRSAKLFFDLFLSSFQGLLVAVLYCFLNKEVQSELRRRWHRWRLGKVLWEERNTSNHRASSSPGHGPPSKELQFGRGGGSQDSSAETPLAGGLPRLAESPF

human GLP-1 receptor [2] = molecular target: T2, human GLP-1 receptor (human, UniProt P43220 24-463)
human glucagon receptor [3] = molecular target: T1, human glucagon receptor; remark: listed apart in the source
human GLP-1 receptor [4] = molecular target: T2, human GLP-1 receptor; remark: listed apart in the source

Row | Binder | EC50 hGlucagon-R, cAMP formation (human glucagon receptor [1]) | EC50 hGLP-1R, cAMP formation (human GLP-1 receptor [2]) | EC50 hGLUC R [pM], cAMP formation (human glucagon receptor [3]) | EC50 hGLP-1 R [pM], cAMP formation (human GLP-1 receptor [4])
1 | HSQGTFTSDLSKQLESRRAQEFIEWLLATGPESGAPPPS-OH [SEQ ID NO: 34] | 0.0014 nM | 0.363 nM | – | –
2 | B1 | – | – | 3.5 pM | 50700 pM
3 | HSQGTFTSDLSKQLESRRAQDFIEWLLATGPESGAPPPS-OH [SEQ ID NO: 35] | 0.0071 nM | 0.934 nM | – | –
4 | HSQGTFTSDYSKQLESRRAQEFIEWLLATGPESGAPPPS-OH [SEQ ID NO: 29] | 0.0009 nM | 0.145 nM | – | –
5 | B2 | – | – | 0.8 pM | 23100 pM
6 | B3 | 0.0094 nM | 1.24 nM | – | –
7 | HSQGTFTSDISKQLESRRAQEFIEWLLATGPESGAPPPS-OH [SEQ ID NO: 31] | 0.0041 nM | 0.941 nM | – | –
8 | HSQGTFTSDLSKQLESRRAQEFIEWLLAGGPESGAPPPS-OH [SEQ ID NO: 27] | 0.0013 nM | 0.0808 nM | – | –
9 | B4 | 0.0011 nM | 0.159 nM | – | –
10 | HSQGTFTSDVSKQLESRRAQEFIEWLLATGPESGAPPPS-OH [SEQ ID NO: 30] | 0.0065 nM | 1.18 nM | – | –
11 | B5 | – | – | 0.7 pM | 8310 pM
12 | HSQGTFTSDYSKQLESRRAQEFIEWLLAGGPESGAPPPS-OH [SEQ ID NO: 28] | 0.001 nM | 0.0524 nM | – | –
13 | B6 | 0.012 nM | 18.7 nM | – | –
